Laboratory results published in article PMC1852638.
pKi: −log10 of the molar value. Like-named read-outs stand apart in the source and are kept apart here.

Tests used:
[1] = target: myosin 5 heavy meromyosin (HMM) (UniProt Q99104); assay: inhibition of actin-activated MgATPase
[2] = target: myosin 5 heavy meromyosin (HMM) (UniProt Q99104); assay: inhibition of actin-activated MgATPase; remark: listed apart in the source

glutathione S-transferase (GST)-47 kDa GTD fusion protein, dimer (from UniProt Q99104 1-1853) (domain or fragment)
pKi [1]: 6.28 | pKi [2]: 6.12
